Measured values published in the DeepSol protein solubility set.

Assay: soluble on expression in E. coli; label from the status in PepcDB or PDB records

Sequence	soluble on expression in E. coli
MTVNAKTSPSAGNTWRDLPAAQQPEYPDTEALRAVIADLESYPPLVFAGECDQLRARMAAVAKGEAFLLQGGDCAEAFDAVSADHIRNKLKTLLQMGAVLTYAASVPVVKVGRIAGQYSKPRSKPTETRDGVTLPTYRGDSVNGFDFTEAARIPDPERLKRMYHASASTLNLVRAFTTGGYADLRQVHAWNQDFVKSSPSGQRYEQLAREIDNALNFMRACGTDPAEFQTVEFFSSHEALLLDYESALTRVDSRTGQLYDVSGHMVWIGERTRQLDHAHIEFASRIRNPIGIKLGPSTTAEEALQYIERLDPEREPGRLTFIVRMGADKIRDKLPELVEKVTASGATVAWITDPMHGNTYEAASGHKTRRFDDVLDEVKGFFEVHKSLGTHPGGIHVELTGDDVTECVGGGDEIFVDDLHQRYETACDPRLNRSQSLDLAFLVAEMYRDQ	not soluble
MTVPEEAQTLIGKHYRAPDHFLVGREKIREFAVAVKDDHPTHYSEPDAAAAGYPALVAPLTFLAIAGRRVQLEIFTKFNIPINIARVFHRDQKFRFHRPILANDKLYFDTYLDSVIESHGTVLAEIRSEVTDAEGKPVVTSVVTMLGEAAHHEADADATVAAIASILEHHHHHH	soluble
MTVSREVELEGHIIDSGMMQSCFGIIMDLGGSFSVQKFDIGRHKDEESYARMLVEADDEAQLQSIVHELHQHGVNPSDPKDATLVPAPDDQVVPHGFYSTTNHPLEHHHHHH	not soluble
MTVTNMTEWFAKGVEALHHDHVYLARACFEQAVTEQRSPLSSSYLALCQAKTRGTFSDAIASAREAVAADPANPALYHNLGCIYLLAGKRTEAIETFRQGLEHHHHHH	not soluble
MTVYHFVGIKGTGMSSLAQILHDMKHTVQGSDYEKRFFTQTALEKRNISILPFDKSNVKEGQVIIAGNAFPDTHEEIVAAKELNIPVHRYHHFLGDLMNQYTSVAVTGAHGKTSTTGLLAHVMQGAHPTSYLIGDGTGHGVENSKYFVFEACEYRRHFLSYNPDYAIMTNIDFDHPDYFTDINDVFSAFQEMALQVKKGIIACGDDEELQKIQAKVPVIFYGFGEDNDFQARNIQKRTDGTIFDVFVRNTYYDTFKITGYGNHSVLNALAVIALCHYENVDVEAVKHQLTTFEGVKRRFNEKPMGEQVIIDDYAHHPTEINATIEAARQKHPEREIVAVFQPHTFSRTEKFLDEFAESLSKADQVYLCDIFGSARENKGELTIEDLQKRIDGAELITDTTTDVLKKHKNGVLIFMGAGDIQKFEAAYVKEVQVAEK	not soluble
MTYELCLEYGTYPLSRVDAYWGEDQNPPTFIQEDRLLCHKLETMNHLFHDLFVTIESQFHYVGFNMPEKRAQIRILYQEVATILKSKYKDYPIKIETFLL	not soluble
MVALFPSSPAEDLLAEGPCVMTGKGLHQLLLDRWGYSYGLQLRRTQGKIFLQIMWKYLEQASFPMDEGEYFSHLNEVASYLVALGAAEAIAQTIRETREKPRLGKAVSIPIELGARASEWFPDLEHHHHHH	soluble
MVAVPEGYESLLERPLYGHLATVRPDGTPQVNAMWFAWDGEVLRFTHTTKRQKYRNIKANPAVAMSVIDPDNPYRYLEVRGLVEDIVPDPTGAFYLKLNDRYDGPLTEPPADKADRVIIVVRPTAFSKQVA	soluble
MVAVSFGAAFRETLEGSGNPQDEFEKLEFEEAYWPELYTTRGPEDDEIYQPFIGPWDYETDLPELHETQGPEDNEVYQPFPGPCFP	not soluble
MVCLQRICYEKIFLKKKIIATGTIWMSNMQQINNASVRPVSAYNTKHLQIPAIALLQSSPLPEQAIRTFSRALLTPTNHLFVNGRYIRTGLISGFDSRKLSFFQRIYLFLKSRFFTENKSVKISAVWAHDSWSNNYFHWFNDTLPRLFLLSKQIEDSVAVLPVELSKITFIVESLELLKIEHQWIDQKKSHRFESLSVLHTATLQPDINPLLQKQMRDAVFSAMKIDPQERPFRKIYISRAHARYRKIINEQELLPVLKKYGYDIIYPETYSFKEQVKLFAESNALISIHGAGHTNCMFMKQDAKVMEIRNTEWESQPLCFWGLANIFELKWEYITATRVSEVSNFNDVFIAPHIFEESLRTFENIKLEHHHHHH	not soluble
MVDFYYLPGSSPCRSVIMTAKAVGVELNKKLLNLQAGEHLKPEFLKINPQHTIPTLVDNGFALWESRAIQVYLVEKYGKTDSLYPKCPKKRAVINQRLYFDMGTLYQSFANYYYPQVFAKAPADPEAFKKIEAAFEFLNTFLEGQDYAAGDSLTVADIALVATVSTFEVAKFEISKYANVNRWYENAKKVTPGWEENWAGCLEFKKYFE	soluble
MVDYDKQMKTWIRSQHLICVGSDFIFETVDQTQLDKFETCIRGMGGRIRTVKAVGNWPMGPRRSFKILQATASVPRPGGEALVTYWAKKGSKTTRYSEISS	soluble
MVESENKDIEESGAEVDRRDVRSLVRKLSDNNWEIPKGHIPNMRVPGRLFVSEKLLEGIEPGTIDQIANVATLPGIQKYSMAMPDAHLGYGFAIGGVAAFDVEEGVISPGGVGFDINCGVRLIRTNLQKEDVVPHIKRLTDELFSNVPSGVGSKSRFKASDKELDSAFLEGAKWAVDAGYGVEADVEHCEGNGFLEGADTSHVSSKARNRGKPQLGTLGSGNHFLEVQYVDEIYDPEVASAFGLEEGQVTVMVHCGSRGAGHQICTDHLKELSQAVKRYGIEIPDKQLACAPAQSKEAQNYFKAMLCAANYAWANRQMITHWTRESFEKIFGRDADDMEMSLLYDVAHNVAKLEEHSIEGRKKEVYVHRKGATRAFPAGHPEVPSAYRDVGQPVLIPGSMGTPSFILCGSTESMDVSFGSACHGAGRVMSRAHAKKEFHGQSIKEDLEAHGITVRATHPSVIAEEAPGVYKSSSEVVNVVHELGIARKVARVIPLGVAKGLEHHHHHH	not soluble
MVESTTTIYDVARVAGVSMATVSRVVNGNANVKEKTRQKVLEAIAELDYRPNAVARGLASKRTTTVGVILPTITSTYFAAITRGVDDIASMYKYNMILANSDNDVEKEEKVLETFLSKQVDGIVYMGSSLDEKIRTSLKNSRTPVVLVGTIDGDKEIPSVNIDYHLAAYQSTKKLIDSGNKKIAYIMGSLKDVENTERMVGYQEALLEANIEFDENLVFEGNYSYEQGKALAERLLERGATSAVVSHDTVAVGLLSAMMDKGVKVPEDFEIISGANSPITQYTYPTLTSVNQPLYDLGAVAMRLLTKLMLKEDVEQNQLVLDHEIFSRRSTK	soluble
MVEVLTLGVIQTTLDSTAAWNTDSGEPKISASEDSRAWYEIRRAMRALADHEDQPRIILLPELALPRTRLDDFERLVCSMNALAIVGVDYRLNHRTKSAKNEGLVLVPRNFWKRTPSRYAARVWFGKRDPAPAEASGFKEYMPPWAFHSDPNVYVFDAGPYGRIGVSICYDFMDIERALLYRGRVHHLFVIAYNRDVKLFESLAVSLSRTAFCNVVVCNTGYFGGSLVVSPYYEAFKRIGYSVDGGKVFTAQCVPLPVRDLDAAIHGFDTKPNATYKHLPPGFTTSMDHTAALPEGPSAVAIPLFTSDLEHHHHHH	not soluble
MVFKIKDEWGEFLVRLARRAIEEYLKTGKEIEPPKDTPPELWEKMGVFVTLNRYNVPPQTALRGCIGFPTPIYPLVEATIKAAIYSAVDDPRFPPVKLEEMDNLVVEVSVLTPPELIEGPPEERPRKIKVGRDGLIVEKGIYSGLLLPQVPVEWGWDEEEFLAETCWKAGLPPDCWLDEDTKVYKFTAEIFEEEYPRGPIKRKPLVLEHHHHHH	soluble
MVFLDPIHRIDVVTLSELSRLGFRRSGDFVYRPECHLCRQCLSCRVPVADFQMNSMQKKAWKRNQDLTMTVLPTRQASQIHYDLYERYINERHADGDMFPPSLDQFEKFLVHSCTDSFFLELWKDNRLISVSTCDLMDDGLSAVYTFFDPDEHRRSLGVYSILNQIEYVKTLGLEYVYLGYWVPHSAKMNYKSQYTPLELLLDGQWRRLNRSLSPEEINQLGNSLMTTLPSEWNNLIIKLEHHHHHH	not soluble
MVFVKTLHRTLFLEVAANEDVLSIKQKIEAAEGIPAEEQRLCYAGRQLEDSDCGIDSEATIYVNLELLGGAKKRKKKVYTTPKKNKRKPKKVKLAVLKYYKIDENGKITRLRKECQQPSCGGGVFMAQHANRHYCGRCHDTLVVDTATAAATSGEKGGKKGKK	not soluble
MVGSLNCIVAVSQNMGIGKNGDLPWPPLRNEFRYFSRMTTTSSVEGKQNLVIMGKKTWFSIPEKFRPLKGRINLVLSRELKEPPQGAHFLSRSLDDALKLTEQPELANKVDMVWIVGGSSVYKEAMNHPGHLKLFVTRIMQDFESDTFFPEIDLEKYKLLPEYPGVLSDVQEEKGIKYKFEVYEKND	soluble
MVGVLFTFFAWCQRDRDVVGTPFVSIRGIFQADHRAWCENRRRELTKPDGWMSLIGLHWLGPKAHYIGSSPDNGIRLAMGPPDMGMIERDGDVVWFTPHAGVPLTVDGQPLRGRVRVFSDADLTPTTIGFDDGKGWLTLLRRGDRFALRVKHVNAPSRLHFTGLEYWPSDPEWRISARYLPNKAGATLSIFNIVGMTANVPNAGVIAFERLGHTYRLQAIRAAGQALFVMFADRTSGHGSYPAGRFLEVDAPDKQGSVVLDFNRAYNPPCAFTLFTTCLLPPSENRLNLAVTAGEKAYHVSTVLPLEHHHHHH	not soluble
MVGVMSNSSALSREFVKIEIGGKVIKGNSKVENSGDYFDGHCPQAFHAFSGIDGTVFDLINLKLRVTKHIQDLLENFFKRGEKEVKIEILRRESTKSGSAYSSFKVVYQGCRMHNMLLAHDNDSNLILELSFTPEESVSIEMNIPSDDGKSTEKLGPMTYNLYKEALV	not soluble
MVHHKLKNDPSGHDWFHIVRVRNLAVELAHKEGANTFICQMAALLHDIIDDKICQDSKQASYELTQWLYSQDLAIAEVEHILDILENISFKAGTGLTMKTLEGQIVQDADRLDAMGAIGIARTMAYSGSKGRLIHDPNLKPRENLTLEEYRNGQDTAIIHFYEKLLKLKDLMNTKQGKMLAQKRHDFLELYLAEFYAEWNGKRLEHHHHHH	not soluble
MVHSTDSFDFLGWNFVVKPNGKFISTPSQKATSSIKAKVKEVMKDSCFTLEERIDKCGAIVRGWRNYHRFCDMSQHNLWAIAYWTWKFIRKQGRYNRDQTNQVIHRAFPAVKWAACRFNNVTEDKSPLEHHHHHH	not soluble
MVIMAGKAVRTEQVSATRQLILTTAERLFAEHGVYAVSNRQVSEAAGQGNNAAVGYHFGTKTDLVRAIAQRHSERVEELRARQLAALGDSPDLRDWVDCLVRPQFDHLAALGSPTWYARFCAQVMTDPALRQIMTEESRASVSLRAIIVGRNRCMPALPDEVRAERGDMARHLIVHTAEERERALAENRPTPRASWQDAADGLVDAIVGMWLAPVTPRGGG	not soluble
